The values that follow come from paper PMC11848091 (Heliyon, 2025).

For orientation: Kd means a measure of binding affinity in units of concentration. In general, koff refers to the first-order rate constant of dissociation. Higher therefore signals fast dissociation. As usually defined, the kon is the rate constant with which the complex forms.

Test in all cases: SPR
A general note: In SPR one partner is held on a chip, and binding of the other changes the refractive index at the surface.

One experiment has as its target T1, Mouse TNFR1 (mouse, UniProt P25118).
T1 sequence: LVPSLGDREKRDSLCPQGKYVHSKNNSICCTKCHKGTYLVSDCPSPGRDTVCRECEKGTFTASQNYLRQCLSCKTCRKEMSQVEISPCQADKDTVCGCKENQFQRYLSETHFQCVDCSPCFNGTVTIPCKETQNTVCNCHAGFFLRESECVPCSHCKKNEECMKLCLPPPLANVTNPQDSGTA

Another experiment concerns the target Mouse CD163 (mouse, UniProt Q2VLH6).
Another experiment addresses Human CD163 (human, UniProt Q86VB7).

Chain of Human CD163 (Q86VB7 42-1050): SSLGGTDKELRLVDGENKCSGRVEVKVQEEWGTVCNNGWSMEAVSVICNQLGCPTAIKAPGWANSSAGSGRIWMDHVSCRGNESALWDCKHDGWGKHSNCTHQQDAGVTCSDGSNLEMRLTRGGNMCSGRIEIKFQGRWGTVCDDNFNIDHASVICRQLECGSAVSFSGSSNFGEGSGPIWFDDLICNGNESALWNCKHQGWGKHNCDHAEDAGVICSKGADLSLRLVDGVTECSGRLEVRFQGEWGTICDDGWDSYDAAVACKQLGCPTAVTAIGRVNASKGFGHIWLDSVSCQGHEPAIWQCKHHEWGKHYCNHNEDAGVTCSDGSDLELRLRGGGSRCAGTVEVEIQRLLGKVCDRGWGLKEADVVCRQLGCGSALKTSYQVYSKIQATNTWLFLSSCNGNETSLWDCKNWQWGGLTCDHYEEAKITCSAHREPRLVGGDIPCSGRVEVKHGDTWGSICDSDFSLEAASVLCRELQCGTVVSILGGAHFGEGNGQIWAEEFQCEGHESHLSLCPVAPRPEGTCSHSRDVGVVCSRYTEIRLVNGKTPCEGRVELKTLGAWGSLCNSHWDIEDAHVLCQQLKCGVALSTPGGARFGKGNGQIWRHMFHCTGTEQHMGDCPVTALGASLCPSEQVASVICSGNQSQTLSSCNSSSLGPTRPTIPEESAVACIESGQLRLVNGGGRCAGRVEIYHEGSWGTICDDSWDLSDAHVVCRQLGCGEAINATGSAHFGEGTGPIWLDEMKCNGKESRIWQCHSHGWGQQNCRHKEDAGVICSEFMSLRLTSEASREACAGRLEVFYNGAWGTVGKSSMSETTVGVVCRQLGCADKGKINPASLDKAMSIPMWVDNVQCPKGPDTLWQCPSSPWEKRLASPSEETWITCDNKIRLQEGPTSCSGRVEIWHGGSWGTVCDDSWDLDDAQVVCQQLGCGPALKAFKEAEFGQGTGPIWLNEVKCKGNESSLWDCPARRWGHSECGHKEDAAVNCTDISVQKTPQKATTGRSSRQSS
Chain of Mouse CD163 (Q2VLH6 39-1045): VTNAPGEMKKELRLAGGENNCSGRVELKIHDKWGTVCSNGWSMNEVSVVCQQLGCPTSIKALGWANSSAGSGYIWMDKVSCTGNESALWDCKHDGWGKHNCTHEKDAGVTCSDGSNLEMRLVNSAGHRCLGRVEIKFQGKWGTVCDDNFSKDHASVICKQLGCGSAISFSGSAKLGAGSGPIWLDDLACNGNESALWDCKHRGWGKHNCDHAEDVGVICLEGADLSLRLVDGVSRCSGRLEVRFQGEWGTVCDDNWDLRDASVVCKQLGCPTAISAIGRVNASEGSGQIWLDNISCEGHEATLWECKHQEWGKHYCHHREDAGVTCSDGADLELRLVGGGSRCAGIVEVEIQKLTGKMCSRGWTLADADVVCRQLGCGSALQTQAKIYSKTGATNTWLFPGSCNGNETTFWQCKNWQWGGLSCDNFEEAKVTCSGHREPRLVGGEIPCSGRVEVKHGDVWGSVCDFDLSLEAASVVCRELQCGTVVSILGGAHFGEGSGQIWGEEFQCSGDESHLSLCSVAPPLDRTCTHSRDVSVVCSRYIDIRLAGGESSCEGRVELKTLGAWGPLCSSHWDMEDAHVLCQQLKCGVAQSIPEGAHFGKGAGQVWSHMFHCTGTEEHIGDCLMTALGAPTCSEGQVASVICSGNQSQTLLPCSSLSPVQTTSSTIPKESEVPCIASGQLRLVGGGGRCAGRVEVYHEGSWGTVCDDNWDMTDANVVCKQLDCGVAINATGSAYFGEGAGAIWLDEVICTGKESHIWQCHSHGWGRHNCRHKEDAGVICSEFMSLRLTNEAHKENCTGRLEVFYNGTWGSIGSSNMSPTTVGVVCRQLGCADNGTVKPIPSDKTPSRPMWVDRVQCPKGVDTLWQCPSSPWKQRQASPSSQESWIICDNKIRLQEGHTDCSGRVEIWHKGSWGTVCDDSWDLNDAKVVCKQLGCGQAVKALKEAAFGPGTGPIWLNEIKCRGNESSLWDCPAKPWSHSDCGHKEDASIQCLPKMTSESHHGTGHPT

B1: Mouse TNF (ligand)
chain: LRSSSQNSSDKPVAHVVANHQVEEQLEWLSQRANALLANGMDLKDNQLVVPADGLYLVYSQVLFKGQGCPDYVLLTHTVSRFAISYQEKVNLLSAVKSPCPKDTPEGAELKPWYEPIYLGGVFQLEKGDQLSAEVNLPKYLDFAESGQVYFGVIAL
For the molecule B1, in the experiment with Mouse TNFR1, binding was put at a Kd of 69.6 nM, the koff amounted to 0.000379 s⁻¹ and the kon came to 5450 M⁻¹ s⁻¹. In the experiment with Mouse CD163, this molecule returned a Kd of 0.093 nM, a koff of 0.000232 s⁻¹ and a kon of 2.5e+06 M⁻¹ s⁻¹. In the experiment with Human CD163, this molecule had a Kd of 1.93 nM, a koff of 0.000151 s⁻¹ and a kon of 78500 M⁻¹ s⁻¹.
